Experimental data: article PMC11189632

Legend:
Assay in all cases: co-IP
[1] = target: β2m-assembled HA-HLA-C*05:01 (human | human (endogenous in HeLa))
[2] = target: β2m-assembled HA-HLA-C*07:02 (human | human (endogenous in HeLa))
[3] = target: β2m-assembled HA-HLA-G*01:01 (human | human (endogenous in HeLa))

B1: HCMV glycoprotein US10, untagged, transiently expressed (natural protein)
chain: ATEETREPTYFTCGCVIQNHVLKGAVKLYGQFPSPKTLRASAWLHDGENHERHRQPILVEGTATATEALYILLPTELSSPEGNRPRNYSATLTLASRDCYERFVCPVYDSGTPMGVLMNLTYLWYLGDYGAILKIYFGLFCGACVITRSLLLICGYYPPRE
For B1, the US10 signal intensity relative to the maximum (HLA-G-bound US10) [1] was 0.7 fold of max, the US10 signal intensity relative to the maximum (HLA-G-bound US10) [2] was 0.2 fold of max and the US10 signal intensity relative to the maximum (HLA-G-bound US10) [3] was 1 fold of max.
